Among the data in the supplement of paper PMC10567573 are protein stability index values, retold here.

± gives the standard deviation.

The data set in a line: protein stability index of a GFP-peptide fusion (GPS, HEK-293T) (PSI 1-6); higher = more stable. The note with it: c terminus: a fixed tail appended.
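Note: 24-mer peptide tiles fused after GFP, lentivirally expressed, FACS-sorted into six equal bins by GFP/DsRed ratio, decoded by Illumina sequencing, PSI is the read-weighted mean bin number.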

Regarding VILLPYVSKVTGWCRDRLLGHREP [TMEM175], the protein stability index by setting is: (treatment: DMSO) 2.28 ± 0.3; (treatment: MLN4924 1 uM, 8 h) 2.04 ± 0.36.

On to VIVQIKQPRKKYVQRKSDFDQTVF [NETO1], for which the protein stability index reads like this: (treatment: DMSO) 2.09 ± 0.3; (treatment: MLN4924 1 uM, 8 h) 2.09 ± 0.076.

Regarding VKHQCCPGCGYFCTAGNFMECQPE [EHMT1], the protein stability index amounted to 3.31 ± 0.19 (treatment: DMSO) and 3.31 ± 0.5 (treatment: MLN4924 1 uM, 8 h).

For the sequence VKNSNRYDVEMTDELVGLPFSSHT [FBXO34], the protein stability index was 3.8 ± 0.25 (treatment: DMSO) and 4 ± 0.12 (treatment: MLN4924 1 uM, 8 h).

Consider VKRKIRDESLCPQHHEALSLFCYE [TRIM39], for which the protein stability index is 2.38 ± 0.11 (treatment: DMSO) and 2.73 ± 0.3 (treatment: MLN4924 1 uM, 8 h).

VKVPGIVRLRTLLCKVLGVLFSVA [CLCN6]: the protein stability index came to 2.21 ± 0.32 (treatment: DMSO) and 2.19 ± 0.29 (treatment: MLN4924 1 uM, 8 h).

For the sequence VLALADEAGYYFFNGNYKVDSPKN [ADAMTSL2], the protein stability index was 2.7 ± 0.23 (treatment: DMSO) and 2.86 ± 0.3 (treatment: MLN4924 1 uM, 8 h).

The sequence VLCPECENPETDLHVNPKKQTIGN [EIF5] showed a protein stability index (treatment: DMSO) of 4.3 ± 0.3 and a protein stability index (treatment: MLN4924 1 uM, 8 h) of 4.54 ± 0.15.

VLMKGQHLHLETFKAVLDGLDVLL [PRAME]: the protein stability index amounted to 2.26 ± 0.38 (treatment: DMSO) and 2.17 ± 0.1 (treatment: MLN4924 1 uM, 8 h).

On to VNPLHVDSTWLLLRRIRAESGTKG [SLC25A39], for which the protein stability index by setting is: (treatment: DMSO) 2.83 ± 0.3; (treatment: MLN4924 1 uM, 8 h) 2.74 ± 0.33.

For VPAGEEEGELGEYRQKLLMFLEIS [VPS39], the protein stability index reads like this: (treatment: DMSO) 3.39 ± 0.16; (treatment: MLN4924 1 uM, 8 h) 3.68 ± 0.22.

Sequence VPGEFKQDVTVVGSAGRLLAVGTD [GFOD1] came in with a protein stability index (treatment: DMSO) of 4.1 ± 0.29 and a protein stability index (treatment: MLN4924 1 uM, 8 h) of 3.69 ± 0.17.

For VQKLVKVCTDTDRWSLISLSNKNG [TENT5C], the protein stability index runs as follows: (treatment: DMSO) 2.64 ± 0.034; (treatment: MLN4924 1 uM, 8 h) 2.85 ± 0.26.

On to VQRHNSFSPNSPQFNVSGPGLLEE [NECAB1], for which the protein stability index was determined as 4.03 ± 0.21 (treatment: DMSO) and 4.33 ± 0.32 (treatment: MLN4924 1 uM, 8 h).

Regarding VRQLERENAELESRIQEWYEFQIP [KRT36], the protein stability index came to 3.41 ± 0.16 (treatment: DMSO) and 3.43 ± 0.42 (treatment: MLN4924 1 uM, 8 h).

On to VSAATQLRHFFLVEDLVDSLKLAL [RTN2], for which the protein stability index turned out to be 2.56 ± 0.72 (treatment: DMSO) and 2.49 ± 0.47 (treatment: MLN4924 1 uM, 8 h).

For VSCFLTFNIFDWLGRSLTAVFMWP [SLC29A1], the protein stability index (treatment: DMSO) came to 3.03 ± 0.07 and the protein stability index (treatment: MLN4924 1 uM, 8 h) came to 3.502 ± 0.017.

VSDPQHAARLLRALSSFREESRFC [GAN]: the protein stability index runs as follows: (treatment: DMSO) 2.59 ± 0.068; (treatment: MLN4924 1 uM, 8 h) 2.72 ± 0.19.

Regarding VSQWYELVVFTASMEIYGSAVADK [CTDNEP1], the protein stability index runs as follows: (treatment: DMSO) 3.26 ± 0.36; (treatment: MLN4924 1 uM, 8 h) 3.17 ± 0.48.

Consider VTPFDHNIVNLLTTCSTPLLNSPP [AUP1], for which the protein stability index by setting is: (treatment: DMSO) 2.42 ± 0.12; (treatment: MLN4924 1 uM, 8 h) 2.48 ± 0.39.

Consider VTVPSMLSRLLSRKRAVPCGACLT [OR3A1], for which the protein stability index is, setting by setting: (treatment: DMSO) 2.39 ± 0.38; (treatment: MLN4924 1 uM, 8 h) 2.25 ± 0.29.

Turning to VTVTDVDIVFSKIKGKSCRTITFE [TPPP], the protein stability index is 2.23 ± 0.24 (treatment: DMSO) and 2.1 ± 0.28 (treatment: MLN4924 1 uM, 8 h).

In the case of VVIRDIDERAMELLIDFAYTSQIT [KLHL20], the protein stability index reads like this: (treatment: DMSO) 3.19 ± 0.55; (treatment: MLN4924 1 uM, 8 h) 2.67 ± 0.57.

As for VVYVKHQAQIDQYLGLVRTHINAV [RTN1], the protein stability index is 2.22 ± 0.82 (treatment: DMSO) and 2.52 ± 0.48 (treatment: MLN4924 1 uM, 8 h).

Consider VWKYFGFDTNAEGCILQWKKIYCR [ZBED1], for which the protein stability index is, setting by setting: (treatment: DMSO) 2.37 ± 0.56; (treatment: MLN4924 1 uM, 8 h) 2.2 ± 0.41.

In the case of WAIPNRQINDGMGGDGDDMEIFME [BEX3], the protein stability index is 4.31 ± 0.3 (treatment: DMSO) and 4.22 ± 0.26 (treatment: MLN4924 1 uM, 8 h).

Turning to WFQNKRSKFKKLMKQGGAALEGSA [DLX1], the protein stability index reads like this: (treatment: DMSO) 2.62 ± 0.4; (treatment: MLN4924 1 uM, 8 h) 3.01 ± 0.36.

Take WGCDLGVVTRVVTGVYPRCLHASQ [BRF1]: the protein stability index runs as follows: (treatment: DMSO) 2.89 ± 0.8; (treatment: MLN4924 1 uM, 8 h) 2.3 ± 0.46.

In turn, WGDLLGEDSLAALSSVPSEAQISD [SNAP91] showed a protein stability index (treatment: DMSO) of 4.76 ± 0.3 and a protein stability index (treatment: MLN4924 1 uM, 8 h) of 4.71 ± 0.22.

For WGLDQEQVFSLGDGVSGGFFGIRD [ZBED1], the protein stability index is, setting by setting: (treatment: DMSO) 2.91 ± 0.6; (treatment: MLN4924 1 uM, 8 h) 3.17 ± 0.3.

With WGRLLEQVGTMALWASQREKEVLR [ZBED2], the protein stability index by setting is: (treatment: DMSO) 2.18 ± 0.16; (treatment: MLN4924 1 uM, 8 h) 2.36 ± 0.23.

WHEIRQGRLPRIPQVLSQEFTELL [WEE1] yielded a protein stability index (treatment: DMSO) of 2.42 ± 0.22 and a protein stability index (treatment: MLN4924 1 uM, 8 h) of 2.38 ± 0.23.

In turn, WIGLFLVATGSQQSLAQPLPGNTT showed a protein stability index (treatment: DMSO) of 2.93 ± 0.55 and a protein stability index (treatment: MLN4924 1 uM, 8 h) of 2.96 ± 0.35.

As for WKVLTWLRYTLWIPLYPLGCLAEA [HACD3], the protein stability index (treatment: DMSO) is 2.78 ± 0.74 and the protein stability index (treatment: MLN4924 1 uM, 8 h) was found to be 2.55 ± 0.54.

Turning to WNNVGLLGGRALMNCLPSNRTLWR [LRRC45], the protein stability index was 2.23 ± 0.31 (treatment: DMSO) and 2.24 ± 0.45 (treatment: MLN4924 1 uM, 8 h).

With WRERAVEKRERALEEVERAILEMK [ZBED2], the protein stability index is, setting by setting: (treatment: DMSO) 4.2 ± 0.14; (treatment: MLN4924 1 uM, 8 h) 4.29 ± 0.44.

On to WRLLNPGEYVVTAKAEGFTASTKN [CPXM2], for which the protein stability index is, setting by setting: (treatment: DMSO) 3.09 ± 0.43; (treatment: MLN4924 1 uM, 8 h) 3.03 ± 0.29.

Turning to YDPTYKDKEGPSPKVEYVWRNIIL [SCD], the protein stability index is, setting by setting: (treatment: DMSO) 2.11 ± 0.47; (treatment: MLN4924 1 uM, 8 h) 2.37 ± 0.23.

As to YECTVCKKRFTRRSHLIGHQRTHS [ZNF449], the protein stability index reads like this: (treatment: DMSO) 4.86 ± 0.39; (treatment: MLN4924 1 uM, 8 h) 5.05 ± 0.24.

As to YEKAYEGGSELGGWSLGRWTHDGI [CPXM2], the protein stability index was found to be 2.49 ± 0.82 (treatment: DMSO) and 2.69 ± 0.16 (treatment: MLN4924 1 uM, 8 h).

Sequence YETESETESEIESETDFETEPETA [GNAS] had a protein stability index (treatment: DMSO) of 5.2 ± 0.17 and a protein stability index (treatment: MLN4924 1 uM, 8 h) of 5.22 ± 0.15.

For the sequence YFITLGTDLAQQQGGGNGQQQQAM [KCNA4], the protein stability index runs as follows: (treatment: DMSO) 3.04 ± 0.18; (treatment: MLN4924 1 uM, 8 h) 2.95 ± 0.67.

Regarding YGLQGGMAFLDKRLQVKEHQHEEI [ATL3], the protein stability index reads like this: (treatment: DMSO) 3.06 ± 0.51; (treatment: MLN4924 1 uM, 8 h) 3.39 ± 0.65.

As to YGSFHQQYWLDGKIIAVGVIDILP [ATE1], the protein stability index was determined as 3.36 ± 0.39 (treatment: DMSO) and 3.16 ± 0.67 (treatment: MLN4924 1 uM, 8 h).

Take YHNAGTQTVPKRIPERLSIFCRDT [IQUB]: the protein stability index (treatment: DMSO) turned out to be 2.51 ± 0.28 and the protein stability index (treatment: MLN4924 1 uM, 8 h) worked out at 3.04 ± 0.8.

For the sequence YHSPELTTPPGHGTLDNSKSMKPY [NEUROD6], the protein stability index reads like this: (treatment: DMSO) 2.87 ± 0.65; (treatment: MLN4924 1 uM, 8 h) 3.7 ± 0.67.

With YIKTPLFNPEVAKYLKVPQDPLKF [IQUB], the protein stability index (treatment: DMSO) came out at 2.42 ± 0.66 and the protein stability index (treatment: MLN4924 1 uM, 8 h) was 2.57 ± 0.36.

YILLVTSDVLTISGTIMKIGIEAK [MCOLN1]: the protein stability index came to 3.09 ± 0.5 (treatment: DMSO) and 3.17 ± 0.39 (treatment: MLN4924 1 uM, 8 h).

On to YIVAGSARQHALYIWEKSIGNLVK [RBBP5], for which the protein stability index reads like this: (treatment: DMSO) 2.22 ± 0.25; (treatment: MLN4924 1 uM, 8 h) 2.14 ± 0.47.

YIWEKSIGNLVKILHGTRGELLLD [RBBP5] showed a protein stability index (treatment: DMSO) of 2.65 ± 0.52 and a protein stability index (treatment: MLN4924 1 uM, 8 h) of 3.09 ± 0.29.

For the sequence YLLMVTVILLPYVSKVTGWCRDRL [TMEM175], the protein stability index was 3.27 ± 0.62 (treatment: DMSO) and 3.22 ± 0.66 (treatment: MLN4924 1 uM, 8 h).

On to YLRCIQSEVSFEGAYGNLKRLYDK [SMG5], for which the protein stability index reads like this: (treatment: DMSO) 2.61 ± 0.26; (treatment: MLN4924 1 uM, 8 h) 2.64 ± 0.34.

On to YPALREKSKKYSDVEVPASVTGYS [ADD1], for which the protein stability index (treatment: DMSO) is 4.16 ± 0.2 and the protein stability index (treatment: MLN4924 1 uM, 8 h) stood at 4.28 ± 0.25.

For the sequence YQQQHEQQKKDLEILHQQNIHQLQ [SASS6], the protein stability index is, setting by setting: (treatment: DMSO) 4.47 ± 0.11; (treatment: MLN4924 1 uM, 8 h) 4.6 ± 0.19.

Consider YQSFVQFLQYYYQSGCLYRLRALG [TMEM120A], for which the protein stability index runs as follows: (treatment: DMSO) 2.67 ± 0.88; (treatment: MLN4924 1 uM, 8 h) 3.22 ± 0.57.

With YREESDSLGQDLRRLRQELLKTEA [DAPK3], the protein stability index is, setting by setting: (treatment: DMSO) 3.85 ± 0.68; (treatment: MLN4924 1 uM, 8 h) 3.83 ± 0.31.

YSGGGYYLDLPGSRQGSAEALRAL [PKD2L1] yielded a protein stability index (treatment: DMSO) of 2.5 ± 0.48 and a protein stability index (treatment: MLN4924 1 uM, 8 h) of 2.92 ± 0.89.

In the case of YSLGGVRSLNVASGSGKSGGYGFG [KRT71], the protein stability index worked out at 2.72 ± 0.34 (treatment: DMSO) and 3.29 ± 0.49 (treatment: MLN4924 1 uM, 8 h).

On to YSSGSYDSIKTEVSGCPEDLTVGR [NOL4L], for which the protein stability index is, setting by setting: (treatment: DMSO) 4.49 ± 0.23; (treatment: MLN4924 1 uM, 8 h) 4.44 ± 0.23.

As to YSWNNRCMVEIVQKYDPDKDEWHK [KLHL13], the protein stability index worked out at 2.84 ± 0.42 (treatment: DMSO) and 2.86 ± 0.25 (treatment: MLN4924 1 uM, 8 h).

For YTRIWSLHDARLLRTIPSPYPASK [DCAF4], the protein stability index reads like this: (treatment: DMSO) 2.46 ± 0.48; (treatment: MLN4924 1 uM, 8 h) 2.87 ± 0.17.

Take YYLHPLPAGAEYCSSARHPAWGHC [SCNN1D]: the protein stability index is, setting by setting: (treatment: DMSO) 2.12 ± 0.2; (treatment: MLN4924 1 uM, 8 h) 2.21 ± 0.12.
